Test results reported in patent US20060094079A1.

Molecular target: Human placental collagen, type III (Sigma) (human) (UniProt P02461)
Experiment: cell-based or functional assay

Chain of UniProt P02461 (P02461 154-1221): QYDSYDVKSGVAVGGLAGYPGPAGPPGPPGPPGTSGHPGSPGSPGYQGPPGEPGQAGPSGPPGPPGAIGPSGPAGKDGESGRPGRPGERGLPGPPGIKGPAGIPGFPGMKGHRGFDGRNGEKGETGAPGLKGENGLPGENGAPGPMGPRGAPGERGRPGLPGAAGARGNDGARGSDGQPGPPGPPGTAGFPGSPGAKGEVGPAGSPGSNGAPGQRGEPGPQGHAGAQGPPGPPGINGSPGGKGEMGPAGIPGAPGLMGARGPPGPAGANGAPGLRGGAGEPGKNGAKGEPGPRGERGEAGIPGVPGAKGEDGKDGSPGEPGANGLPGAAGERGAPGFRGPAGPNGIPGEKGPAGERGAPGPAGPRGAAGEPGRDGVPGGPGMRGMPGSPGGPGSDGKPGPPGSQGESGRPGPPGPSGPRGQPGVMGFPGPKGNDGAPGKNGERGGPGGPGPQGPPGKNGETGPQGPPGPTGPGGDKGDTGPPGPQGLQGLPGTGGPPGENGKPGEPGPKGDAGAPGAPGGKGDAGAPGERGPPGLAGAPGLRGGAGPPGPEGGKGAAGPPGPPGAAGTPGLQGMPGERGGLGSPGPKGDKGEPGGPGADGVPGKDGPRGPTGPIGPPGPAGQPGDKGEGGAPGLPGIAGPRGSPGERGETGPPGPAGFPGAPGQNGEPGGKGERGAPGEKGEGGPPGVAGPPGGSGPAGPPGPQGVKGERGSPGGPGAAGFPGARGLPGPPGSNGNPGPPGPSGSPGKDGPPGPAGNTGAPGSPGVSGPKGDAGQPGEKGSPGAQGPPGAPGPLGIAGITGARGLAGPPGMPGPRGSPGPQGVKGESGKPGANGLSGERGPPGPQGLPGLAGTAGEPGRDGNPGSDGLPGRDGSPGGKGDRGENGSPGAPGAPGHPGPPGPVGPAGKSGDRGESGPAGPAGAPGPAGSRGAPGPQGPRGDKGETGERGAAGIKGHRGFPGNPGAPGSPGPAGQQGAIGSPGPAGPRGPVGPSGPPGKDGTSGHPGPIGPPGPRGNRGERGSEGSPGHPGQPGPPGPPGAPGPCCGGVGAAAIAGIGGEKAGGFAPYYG

## Saratin (protein isolated from the saliva of the leech Hirudo medicinalis; 103 amino acids)
  platelet binding on collagen type III coated surface pretreated with Saratin, whole human blood under flow (shear rate 1300 s-1): 80%
  reduction in platelet deposition on collagen type III coated coverslips at a shear rate of 1300 s-1: 81%
